Measured values as given in the nanobody polyreactivity screen of Harvey et al. (2022).

Test: yeast display, Sf9 membrane polyspecificity reagent, FACS + sequencing; frameworks hold sequencing errors
Summary of the method: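 Nanobodies from a synthetic yeast display library (Saccharomyces cerevisiae BJ5465), induced 36–48 hours with galactose, were stained 1 hour at 4 °C with 10% biotinylated, detergent-solubilized Sf9 membrane reagent, enriched on streptavidin microbeads, then FACS-sorted. Anti-HA (expression) and streptavidin (reagent binding) fluorescence set low and high (top ~1%) gates. Polyreactivity labels come from the gate of origin. Genes were colony-PCR amplified, MiSeq 2 × 250 sequenced and filtered by CDR length.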

| Sequence | polyreactivity (PSR sort gate) |
| --- | --- |
| QVQLVETGGGLVQAGGSLRISCAASGGIFVFYAMGWYRQAPGKERELVAAISWSGTSTYYADSVKGGFTISRDNAKYTVYLQMNRLKPEDTAVYYCAALYPYQYVRGGYWGQGTQVTVSS | high polyreactivity |
| QVQLVESGGGLVQAGGSLRLSCAASGRTFINYAKGWYRQAPGKERELVAAITTGGGGTYYADSVKGRFTISRDNAKNTVYLQMNSLKPEDTAVYYCAAEGTGYWGIVGYYYWGQGTQVTVSS | low polyreactivity |
| QVQLVESGGCLVQAGRSLRLSCAASGSTFYYNAMAWYRQAPGKERELVAAITFTGGSTYADSVKGRFTISRDNAKNTVYFQMNSQKPEDTAVYYCAATIQGHDYLGTGYDYWGQGTQVTVSS | low polyreactivity |
| QVQLVESGGGLVQAGGSLRLSCAASGSIFKRNDMGWYRQAPGKERELVASISWGGTSTYYADSVKGRLTISRDLAKNTVYLKMYSLKPEDTAVYYCAARGLYTYKTYDDWGQGTLVTVSS | low polyreactivity |
| QVQLVESGGGLVQAGGSLRLSCAASGSTFITNIMGWYRQAPGKERELVAAISYIDGTTYYADSVKGRFTISRDYAKNTVYLQMNSLKADDTAVYYCAAVVSKSSFDYWGQGTQVTVSS | low polyreactivity |
| QVHLVESGGGLVQARGTRRLSCAASGYTFPRYTMGWYRQAPGKERELVAAISGSSGSTYYADSVTGRFTISRDNATNTVYLQLNSLKPEDTAVYYCNKYYGFHKIKEYDYWGQGTQGTVSS | high polyreactivity |
| QVQLVESGGGLVQAGGSLRLSCAASGRTFWYNAMGWYRQAPGKERELVAAISSSGGTTYYADSVKGRFTISRDNAKNTVYLQMNSLIPEDTAVYYCARQRRSVNVYKNIYKYWGQGTQVNVSS | high polyreactivity |
| QVQLVETGGGLVQAGGSLRLSCAASGSIFVYYAMGWYRQAPGKERELVAAISSRGGRTYYADSVKGRFTISRDNAKHTVYLQMNSLIPEDTAVYYCAASPDYSRYWVYAPNRRLGYWGQGTQVTVSS | high polyreactivity |
| QVQLVESGGGLVQAGGSLRLSCAASGRIFRGNTMGWYRQAPGKERELVAAITRGGSTSYADSVKGRFTISRDNAKNTVNLQMNSLKPEDTAVYYCATRTHGEGTRRDSWGQGTQVTVSS | low polyreactivity |
| QVQLVESGGGLVQAGGSLRLTCAASGRIFSYYDMGWYRKAPGKERELVARISYSGDSTYYADSVKGRFTISRDNAKNTVYLQMNSLKPEDTAVYYCAAEVDSGYSEYYWGQGTQVTVSS | low polyreactivity |
| QVQLVESGGGLVQAGGSLRLSCAASGSIFRSNDMGWYRQAPGKERELVARITSSVGSTYYADSVKGRFTISRDNAKNTVYLQMNSLKAEDTAVYYGAKRYYHYPYGYRDYDYWGQGTQVTVSS | low polyreactivity |
| QVQLVESGGGLVQAGCSLRLSCAASGSTFGENAMGWYRQAPGKERELVAVITSDTSTYYADSVKGRFTISRDNAKNTVYLQMNSLKPEDTAVYYCAADWGGLWFWYEYWGQGTQVTVSS | low polyreactivity |
| QVQLVESAGGLVQAGGSLRLSCAASGSIFYTYAMGWYRQAPGKERELVAAISGSGTSTYYADSVKGRFTISRDNAKNTVYLQMNSLKPEDTAVYYCATDGGAAWGRYYWDYGYWGQGTQVTVSS | low polyreactivity |
| QVQLVESGGGLLQAGGSLRLSCASSGRTFARYVMGWYRQAPGKERELVAAITRSGGSTYYADSVKGRFTISRDNAKNTVYLQMNSMKPEDTAVYYCAATLRWGLYNTFYSTFNVSYYYWGQGTQVTVSS | high polyreactivity |
| QVQLVESGGGLVQAGGSLRLSCAASGSIGYYVMGWYRQAPGKERELVAVITFGGASTYYADSVKGRFTISRDNAKNTVYLQMNSLKPEDTAVYYCARYQHRLVYGYGYWGQGTQVTVSS | low polyreactivity |
| QVQLVESGGGLVQAGGSLRLSCAASGRIYVKNAMGWYRPAPGKERELVAAINWRGTSTYYADSVKGRFTISRDNAKNTVYLQMKSLKPEDTAVYYCNRVLGYPYGVDYWGQGTQVTVSS | high polyreactivity |
| QVQLVESGGGLVQAGGSLRLSCAASGSTFPANAMGWYRPAPGKERELVATSSWSGGRTYYADSVKGRFTISRDNAKNTVDLQMNSLKPEDTAVYYCAKGYYWLSTYGDSRYGYWGQGTQVTVSS | high polyreactivity |
| QVQLVESGGRLVQAGGSLRLSCAASGFTFRYYAMGWYRQAPGKERELVAAITWSGGRTYYADSVKGRFTISRDNAKNTVFLQMNSLKPEDTAVYSSNTPSLWYGEDYWGHGTQVTVSS | high polyreactivity |
| QVQLVESAGGLVQAGGSLRLSCAASGSNFAIYDMGWYRQAPGKEREFVADISIVGRKKYADSVKGRFTISRDNAKNTVYLQMNSLKPEDTAVYYCTDQDSRDRKFYWGYTRGHWGQGTQVTVSS | low polyreactivity |
| QVQIVESGGGLVQAGGSLRLSCAASGSIFDDYAMGWYRQAPGKERELVAAISSGVSTDYADSVKGRFTISRDNAKNTVYLQMYSLKPEDTAVYYCAADDQYRVTLGYDYWGQGTQVTVSS | low polyreactivity |
| QVQLVESGGGLVQAGGSLRLTCAASGLTFLVYALGWYRQEPGKEWEFVATISKSGGRTYYADSVKGRFTISRDNAKNTVYVQMNSLKPEHTAVDYCAAKGYPYGRLWCGYYRYDYWGQGTQVTVSS | high polyreactivity |
| QVQLVESGGGLVQAGGSLRLSCAAAGSTFSSYAMGWYRQAPGKERELVAAITSSGGSTYYADSVKGRFSISRDNAKNTVYIQKNSLKPEDTAVYYCAAADVIFWLYYYWGQGTQVTVSS | low polyreactivity |

| Sequence | polyreactivity (PSR sort gate) |
| --- | --- |
| QVQHVESGGGLVQAGGSLRLSCAASGSIFTGNAMGWYRQAPGKERELVAAISSSGGSTYYADSVKGRFTISRDNAKNTVYLQMNSLKPEDTAVYYCAAYNYFLQYDYWGQGTQVTVSS | low polyreactivity |
| QLQLVESGGGLFQAGGRLRLSFAATGSTFGYYARGWYRQAPGKERELVAAISGSGGSTYYADSVKGRFTISRDNAKNTVYLQMNSLKPEDTAVYYCAATFHRLPKWGSPYYYWGQGTQVTVSS | high polyreactivity |
| HVQLVESGGGLVQAGGSLRLSCAASGRIFSVYTMGWYRQAPGKDRELVATISSGGRTNYADSVKGRFTISRDNAKNTVYLQMNSLKPEDTAVYYCAAVPYGFVGYDDYWGQGTQVTVSS | low polyreactivity |
| QVQLVESGGGLVQAGGSLRLSCAASGFILIQYAMGWYRQAPGKERELVAAITWSDTSTNYADSVKGRFTISRDNAKNTVYLQMNSLKPEDTAVYYCNADLYGAQDRRLDYYAEGYWGQGTQVTVSS | low polyreactivity |
| QVQLVESGGGLVQAGGSLRLSCAASGSTFVKNTMGWYRQAPGKERELVAAISSRGGSTYYADSVKGRFTISRDNAKNTVYLQMNSLKPEDTAVYYCNALGLYSRYQQGEYDYWGQGTQVTVSS | low polyreactivity |
| QVQLVESGGCLVQAGGILRLSCAASGYTFFLYAMGWYRQAPGKERELVAAINNGGGSTYYADSVKGRFTISRDNAKNTVYLQMNSLKPEDTAVYYCAVRVARGYRYGYWGQGTQVTVSS | high polyreactivity |
| QVQLVESGGGLVQAGGSLLLSCAASGLIFYPYAMGWYRQAPGKEREFVAAITWSGGSTRYADSVKGRFTISRDNAKNTVYLQMNSLKPEDTAVYYCAARYIWWYDYTYTGLDYWGQGTQVTVSS | high polyreactivity |
| QVQLVESGGGLVQAGGSLRLSCAASGRIFSYYDMGWYRQAPGKERELVAAITWGGGSTYYADSLKGRFTISRDNAKNTVYLHMNSLKPEDNAVFYSAADWSPSIWEYDYWGQGTEVTVSS | low polyreactivity |
| QVQLVESGGGLVQAGGSLRLSCAASGRTFDIYAMGWYRQAPGKERELVADITWSDGTTYYADSVKGRFTISRDNAKNTVYLQMNSLKPEDTAVYYCNAYTVYAYDYWGQGTQVTVSS | low polyreactivity |
| QVQLVQAGGGLVQAGGILRLSCAASGFTFQEYAMGWYRQAPGKAREFVAAITYSGGSTYADSVKGRFTISRDNAKNTVYLQMNSLKPEDTAVYYCNAQVYYSVRGYPYGYYRNDYWGQGTQVTVSS | low polyreactivity |
| QVQLVESGGGLVQAGGSLRLSCAASGRTIRYYVMGWYRQAPGKERELVAAISSGGRTNYADSVKGRFTISRDNAKNTVYLQMNSLKPEDTAVYYCAADLWYYWTATRAFDYWGQGTQVTVSS | high polyreactivity |
| QVQLVESGGGLVQAGGSLRLSCAASGFIFWYYTMGGYRQAPGKERELVAAISRSGASTYYADSVKGRFTISRDNAKNTVYLQMNSLKPEDTAVYYCAKDYQTYSGSSDFDYWGQGTQVTVSS | high polyreactivity |
| QVQLVESGGGLVQAGGSLRLSCAASGSTIIAYAMGWYRQAPGKERELVAAITTGDSTNYADSVKGRFTISRDNAKNTVYLQMNSLKPEDTAVYYCNADATDFHFLSEIGSSQEGDYWGQGTQVTVSS | low polyreactivity |
| QVQLVESGGGLVQAGGSLRLSCAASGSTYLYYAMGWYRQAPGKEREMVAAIWSDGSTRYADSVKGRFTISRDNAKNTVYLQMNSLKPEDTAVYYCAVYNYWGQGTQVTVSS | low polyreactivity |
| QVQLVESGGGLVQAGGSLRLSCAASGRIFTYNARGWYRQAPGKERELVAAITYRGSSTYYADSVKGRFTISRDIAKNTVYLQMNSLKAEDTAVYYCAAVFSGFYYAYDYWGQGTQVTVSS | high polyreactivity |
| QVQLVESGGGLVQAGGSLRLSCAASGLIFDDYAMGWYRQAPGKERELVAAISWSDGTTYYADSVKGRFTISRDNAKNTVYLQMNSLKPEDTAVYYCAAEEVSGWEYDYWGQGTQVTVSS | high polyreactivity |
| QVQLVESGGGLVQAGGRLRLSCAASGFTFYYYAMGWYRQAPGKEREMVAAISRSGGSTYYADSVKGRFTISRDNAKNTVYLQMNSLKPEDTAVYYCNTLRRTWFQENDYWGQGTQVTVSS | high polyreactivity |
| QVQLVESGGGLDQAGGSLRLSCAASGLTFRPYAMGGYRQAPWKERELDAGISGGGGRTYYADSVKGRFTISRDNAKNTVYFQMNSLKPEDTAVYYCATPSAYRYPYYYDYEYWGQGTQVTVSS | low polyreactivity |
| QVQLVESGGGLVQAGGSLRLSCAASGSTLWFNAMGLYRPAPGKERELVAAINWSGGSTYYADSVKGRFTISRDNAKNTVYLQMNSLKPEDTAVYYCAAVYQYVHYVWYDYWGQGTQVTVSS | low polyreactivity |
| QVQLVESGGCLVQAGGSLRLSCAASGSTFTINVMGWYRQAPGKERELVAAINGGGRTNYADSVKGRFTISRDNAKNTVYLQMNSLKPEDTAVYYCAADGLSNVRQMDYWGQGTQVTVSS | low polyreactivity |
| QVQLVESGGGLVQAGGSLRLSCAASGRIFTHYAMGWYRQAPGKERELVASISWSGGSTNYADSVKGRFTMSRDNAMNTVYLQMNSLKPEDTAVYYCARKYRYLFATFDYWGQGTQVTVSS | high polyreactivity |
